Experimental data as given in publication PMC7536395.

How the values were obtained:
[1] = molecular target: T1, endogenous mouse GIPR (mouse (endogenous in primary mouse adipocytes and Neuro-2a cells)) (UniProt Q0P543)
T1 sequence: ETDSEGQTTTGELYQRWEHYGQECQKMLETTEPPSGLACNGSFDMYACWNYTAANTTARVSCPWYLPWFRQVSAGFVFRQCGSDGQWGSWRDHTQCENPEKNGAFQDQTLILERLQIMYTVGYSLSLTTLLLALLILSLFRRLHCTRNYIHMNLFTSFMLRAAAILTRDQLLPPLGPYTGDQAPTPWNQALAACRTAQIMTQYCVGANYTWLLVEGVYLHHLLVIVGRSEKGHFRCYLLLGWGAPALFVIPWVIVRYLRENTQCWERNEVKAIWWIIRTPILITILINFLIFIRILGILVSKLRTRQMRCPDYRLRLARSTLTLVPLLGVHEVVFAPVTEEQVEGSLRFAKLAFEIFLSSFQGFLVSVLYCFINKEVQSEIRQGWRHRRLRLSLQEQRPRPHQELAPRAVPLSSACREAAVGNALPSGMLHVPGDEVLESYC

[2] = molecular target: T1, endogenous mouse GIPR (mouse (endogenous in primary mouse adipocytes and Neuro-2a cells)); remark: listed apart in the source
[3] = molecular target: T2, endogenous rat GIPR in INS1 832/13 cells (rat (endogenous in INS1 832/13)) (UniProt P43219)
T2 sequence: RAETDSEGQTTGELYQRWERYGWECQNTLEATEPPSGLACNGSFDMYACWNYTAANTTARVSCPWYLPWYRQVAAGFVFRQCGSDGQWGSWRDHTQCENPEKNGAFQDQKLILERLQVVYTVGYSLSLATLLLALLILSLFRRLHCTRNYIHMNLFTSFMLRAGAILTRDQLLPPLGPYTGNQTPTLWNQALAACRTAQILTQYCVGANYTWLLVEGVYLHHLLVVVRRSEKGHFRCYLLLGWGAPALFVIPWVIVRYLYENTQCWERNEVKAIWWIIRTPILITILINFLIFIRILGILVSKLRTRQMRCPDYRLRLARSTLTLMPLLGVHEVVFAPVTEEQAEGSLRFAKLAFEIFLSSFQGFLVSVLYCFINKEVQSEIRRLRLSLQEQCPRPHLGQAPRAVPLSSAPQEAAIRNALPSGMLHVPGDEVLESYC

Binder | EC50 of cAMP production in mouse primary adipocytes differentiated in vitro [1] | EC50 of glycerol release (lipolysis) from primary mouse adipocytes differentiated in vitro [1] | EC50 of cAMP production in mouse Neuro-2a neuroblastoma cells [2] | EC50 of cAMP production in rat INS1 832/13 cells [3]
YAEGTFISDYSIAMDKIRQQDFVNWLLAQRGKKSDWKHNITQ (ligand) [mouse GIP] | 3.8 nM | 13 nM | 6.35 nM | –
YAEGTFISDYSIAMDKIRQQDFVNWLLAQKGKKNDWKHNLTQ (ligand) [rat GIP] | – | – | – | 0.99 nM
